Laboratory results taken from IntAct's records for PubMed 21441914.

B1: Double-strand break repair protein rad32 (Schizosaccharomyces pombe (strain ATCC 38366 / 972)), Q09683 (parent)
chain: MPNDPSDMNNELHNENTIRILISSDPHVGYGEKDPVRGNDSFVSFNEILEIARERDVDMILLGGDIFHDNKPSRKALYQALRSLRLNCLGDKPCELELLSDTSLTTGDTAVCNINYLDPNINVAIPVFSIHGNHDDPSGDGRYSALDILQVTGLVNYFGRVPENDNIVVSPILLQKGFTKLALYGISNVRDERLYHSFRENKVKFLRPDLYRDEWFNLLTVHQNHSAHTPTSYLPESFIQDFYDFVLWGHEHECLIDGSYNPTQKFTVVQPGSTIATSLSPGETAPKHCGILNITGKDFHLEKIRLRTVRPFIMKDIILSEVSSIPPMVENKKEVLTYLISKVEEAITEANAQWYEAQGTVPVVENEKPPLPLIRLRVDYTGGYQTENPQRFSNRFVGRVANATDVVQFYLKKKYTRSKRNDGLYTSAVEDIKINSLRVESLVNEYLKTNRLECLPEDSLGEAVVNFVEKDDRDAIKECVETQLNKQINLLVKKRVTEENLEQEISSIINDLPKISTTKRKDYEELPEEVSETSINIAEHTPVLKHTSSLLDHHSPLATSSSEHEMEATPSPALLKKTNKRRELPSSLTKKNTRTPQRSKEVKKVPARKLSQSTKKSDKNTQSTLLFYDPSSTTEAQYLDNEDDEILDD
partner: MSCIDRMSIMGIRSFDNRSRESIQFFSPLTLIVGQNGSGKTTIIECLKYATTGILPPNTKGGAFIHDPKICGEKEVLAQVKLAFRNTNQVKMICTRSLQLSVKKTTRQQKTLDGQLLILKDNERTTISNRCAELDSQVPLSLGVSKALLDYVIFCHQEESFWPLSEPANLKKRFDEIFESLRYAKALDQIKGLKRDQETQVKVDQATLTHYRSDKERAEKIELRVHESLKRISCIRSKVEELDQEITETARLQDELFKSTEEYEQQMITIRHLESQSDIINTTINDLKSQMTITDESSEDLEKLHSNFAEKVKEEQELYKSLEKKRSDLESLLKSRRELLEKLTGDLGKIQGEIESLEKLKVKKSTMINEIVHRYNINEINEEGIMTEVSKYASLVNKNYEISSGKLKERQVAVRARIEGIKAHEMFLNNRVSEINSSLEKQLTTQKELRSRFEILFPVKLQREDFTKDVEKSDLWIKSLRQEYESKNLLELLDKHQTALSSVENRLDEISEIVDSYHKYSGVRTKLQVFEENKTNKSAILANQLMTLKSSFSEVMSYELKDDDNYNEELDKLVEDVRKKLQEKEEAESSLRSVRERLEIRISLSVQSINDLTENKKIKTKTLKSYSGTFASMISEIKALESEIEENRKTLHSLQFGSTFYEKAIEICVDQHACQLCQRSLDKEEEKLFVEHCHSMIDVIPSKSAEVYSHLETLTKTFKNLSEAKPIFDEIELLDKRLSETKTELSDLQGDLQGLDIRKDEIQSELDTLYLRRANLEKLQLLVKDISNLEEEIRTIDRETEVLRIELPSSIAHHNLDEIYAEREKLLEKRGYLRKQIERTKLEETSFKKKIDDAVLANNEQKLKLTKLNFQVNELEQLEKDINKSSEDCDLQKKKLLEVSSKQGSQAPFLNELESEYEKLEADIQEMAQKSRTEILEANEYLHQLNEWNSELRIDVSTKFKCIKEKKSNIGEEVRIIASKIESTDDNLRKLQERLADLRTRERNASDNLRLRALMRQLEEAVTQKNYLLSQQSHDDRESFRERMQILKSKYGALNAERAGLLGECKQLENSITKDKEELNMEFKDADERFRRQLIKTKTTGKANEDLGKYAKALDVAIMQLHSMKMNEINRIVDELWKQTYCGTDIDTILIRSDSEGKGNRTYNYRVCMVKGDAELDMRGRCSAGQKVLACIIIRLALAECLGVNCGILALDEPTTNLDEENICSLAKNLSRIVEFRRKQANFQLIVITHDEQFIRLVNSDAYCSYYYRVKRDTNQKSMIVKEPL

Variants of: B1
Details: with rad50_schpo rad50, Q9UTJ8

Row | effect of a mutation on the interaction | Variant
1 | disrupting interaction | C479R;V480R
2 | disrupting interaction | C454R;L455R
3 | disrupting interaction | C454R;L455R;C479R;V480R
